Assay results: US20170267768A1 (University of California, published 2017)
Residue numbers refer to the chain shown, from its start.

B1: scFv-8C (scFv)
scFv: QVQLVQSGGGLVQPGGSLRLSCAASGFTFSSYAMHWVRQAPGKGLEWVTVISPSGHNTYYADSVKGRFTISRDNSKNTLYLQMNSLRAEDTAVYYCARASVGATGPFDIWGQGTLVTVSSASTGGGGSGGGGSGGGGSGGGGSSSELTQPPSVSVAPGQTVTITCQGDSLRSYYASWYQQKPGTAPKLLIYGENNRPSGVPDRFSGSSSGTSASLTITGAQAEDEADYYCNSRDSSGTHLTVFGGGTKLTVLGGGSGGC
notes: also called clone 8
B2: scFv-19C (scFv)
scFv: B1 scFv with T49S, S54P
B3: scFv-9C (scFv)
scFv: B1 scFv with S54N
notes: also called clone 9
B4: scFv-13C (scFv)
scFv: B1 scFv with S54T, H56A
notes: also called clone 13
B5: scFv-16C (scFv)
scFv: B1 scFv with T49S, P53N, S54N
B6: scFv-19 (scFv)
scFv: QVQLVQSGGGLVQPGGSLRLSCAASGFTFSSYAMHWVRQAPGKGLEWVSVISPPGHNTYYADSVKGRFTISRDNSKNTLYLQMNSLRAEDTAVYYCARASVGATGPFDIWGQGTLVTVSSASTGGGGSGGGGSGGGGSGGGGSSSELTQPPSVSVAPGQTVTITCQGDSLRSYYASWYQQKPGTAPKLLIYGENNRPSGVPDRFSGSSSGTSASLTITGAQAEDEADYYCNSRDSSGTHLTVFGGGTKLTVLG
B7: scFv-3 (scFv)
scFv: B6 scFv with S49T, P54D
B8: scFv-15 (scFv)
scFv: B6 scFv with P54H, H56S, T58K
B9: scFv-1 (scFv)
scFv: B6 scFv with P54A, H56N
B10: scFv-18 (scFv)
scFv: B6 scFv with P54A, H56T
B11: scFv-21 (scFv)
scFv: B6 scFv with S49T, P53R, P54H, H56N, T58K
B12: scFv-6 (scFv)
scFv: B6 scFv with P53N, P54N, T58K
B13: scFv-8 (scFv)
scFv: B6 scFv with S49T, P54S
B14: scFv-16 (scFv)
scFv: B6 scFv with P53N, P54N
B15: scFv-11 (scFv)
scFv: B6 scFv with S49A, P53H, P54H, H56S
B16: scFv-20 (scFv)
scFv: B6 scFv with S49T, P53H, P54D, H56T
B17: scFv-10 (scFv)
scFv: B6 scFv with V50A
B18: scFv-5 (scFv)
scFv: B6 scFv with P53R, P54R, H56D, T58K
B19: scFv-22 (scFv)
scFv: B6 scFv with S49T, P54G, H56P, T58K
B20: scFv-17 (scFv)
scFv: B6 scFv with S49T, H56S, T58K
B21: scFv-14 (scFv)
scFv: B6 scFv with S49T, P54A, H56P, T58K
B22: scFv-7 (scFv)
scFv: B6 scFv with P54A, H56P
B23: scFv-13 (scFv)
scFv: B6 scFv with S49T, P54T, H56A
B24: scFv-9 (scFv)
scFv: B6 scFv with S49T, P54N
B25: scFv-2 (scFv)
scFv: B6 scFv with P54A, H56R, T58K
B26: scFv-4 (scFv)
scFv: B6 scFv with S49T, P54H, H56R, T58K

target: T1, His6-tagged recombinant human EphA2 protein (human, UniProt P29317 25-534); assay: BLI (Octet Red 96); His6-EphA2 on anti-His sensors; scFv-PEG-DSPE conjugate at 4.0 ug/ml after thermal stress
T1 construct: also called his-tagged recombinant, human EphA2; human EphA2 with c-terminal His6
Text: (§1) A nucleic acid encoding human EphA2 with c-terminal His6 appended was cloned into expression vector pCEP4 (Invitrogen® # V044-50) and transiently expressed in FreeStyle™ 293 cells (Invitrogen® #K900001) following polyethylenenimine transfection. The His6-tagged recombinant human EphA2 protein was purified from the cell culture medium using Ni-NTA Sepharose™ resin (Quiagen®, USA). Anti-His sensors for the fortéBIO® Octet Red 96 system (fortéBIO®-Pall® #18-5116) were coated with his-tagged recombinant, human EphA2 at concentration of 10 μg/ml protein for 300 sec, and a background run was carried out in PBS for 60 sec. For scFv-PEG-DSPE conjugates, the sensors were then incubated with 2.5 μg/ml (Study 1) or 4.0 μg/ml (Study 2) of the conjugate in PBS, pH 7.4, and the slopes of association curves were determined between 3-13 seconds of incubation, corrected for the buffer-only background, and compared across the variants. ScFv-linked liposomes were incubated with the sensors in PBS at 0.025 mM of liposome phospholipid, the slopes of the association curves were determined between 3-20 seconds of incubation, corrected for the buffer-only background, and compared across the variants.
(§2) Results are shown below in Table 6, in which column A gives scFv identifiers; column B indicates percent yield of scFv/lipopolymer linker conjugates; column C gives percent scFv-conjugate (not liposome-bound) EphA2 binding on-rate; column D gives percent scFv-conjugated-liposome EphA2 binding on-rate; and columns E (Study 1) and F (study 2) give percent antigen binding on-rate remaining in the scFv-conjugate (not liposome-bound) following thermal stress.

T1 sequence (P29317 25-534 limits assumed): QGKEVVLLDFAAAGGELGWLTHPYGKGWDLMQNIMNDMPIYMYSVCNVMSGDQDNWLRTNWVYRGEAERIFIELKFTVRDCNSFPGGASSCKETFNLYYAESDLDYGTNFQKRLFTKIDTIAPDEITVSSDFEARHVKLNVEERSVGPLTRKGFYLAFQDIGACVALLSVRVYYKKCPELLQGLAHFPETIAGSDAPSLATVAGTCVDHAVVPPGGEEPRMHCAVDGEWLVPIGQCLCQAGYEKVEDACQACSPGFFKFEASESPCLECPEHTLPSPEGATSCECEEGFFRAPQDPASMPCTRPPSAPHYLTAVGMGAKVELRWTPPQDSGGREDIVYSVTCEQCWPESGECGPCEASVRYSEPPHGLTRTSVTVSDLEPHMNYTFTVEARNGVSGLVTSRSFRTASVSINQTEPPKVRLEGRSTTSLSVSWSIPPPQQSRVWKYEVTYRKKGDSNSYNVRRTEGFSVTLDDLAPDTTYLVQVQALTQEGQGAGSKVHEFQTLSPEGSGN

**Q.** With B1 as the binder, how does the “percent antigen binding on-rate remaining in the scFv-conjugate following thermal stress (Study 2)” value read?
**A.** 7.3%

**Q.** With B2 as the binder, how does the “percent antigen binding on-rate remaining in the scFv-conjugate following thermal stress (Study 2)” value read?
**A.** 5.1%

**Q.** With B3 as the binder, how does the “percent antigen binding on-rate remaining in the scFv-conjugate following thermal stress (Study 2)” value read?
**A.** 12.2%

**Q.** How did the “percent antigen binding on-rate remaining in the scFv-conjugate following thermal stress (Study 2)” value turn out when B4 was run?
**A.** 9%

**Q.** Which “percent antigen binding on-rate remaining in the scFv-conjugate following thermal stress (Study 2)” value does the source give for B5 here?
**A.** 4.6%

target: T1, His6-tagged recombinant human EphA2 …; assay: BLI (Octet Red 96); His6-EphA2 on anti-His sensors; slope of association curve of scFv-linked liposomes at 0.025 mM phospholipid; TS1C printed as 100
Text: as §1, §2

**Q.** How did the “percent scFv-conjugated-liposome EphA2 binding on-rate” value turn out when B1 was run?
**A.** 133%

**Q.** Which “percent scFv-conjugated-liposome EphA2 binding on-rate” value does the source give for B2 here?
**A.** 129%

**Q.** Which “percent scFv-conjugated-liposome EphA2 binding on-rate” value does the source give for B3 here?
**A.** 118%

**Q.** Which “percent scFv-conjugated-liposome EphA2 binding on-rate” value does the source give for B4 here?
**A.** 120%

**Q.** B5 was tested. Which “percent scFv-conjugated-liposome EphA2 binding on-rate” value did it give?
**A.** 113%

target: T1, His6-tagged recombinant human EphA2 …; assay: BLI (Octet Red 96); His6-EphA2 on anti-His sensors; scFv-PEG-DSPE conjugate at 2.5 ug/ml after thermal stress
Text: as §1, §2

**Q.** Which “percent antigen binding on-rate remaining in the scFv-conjugate following thermal stress (Study 1)” value does the source give for B1 here?
**A.** 19.8%

**Q.** Which “percent antigen binding on-rate remaining in the scFv-conjugate following thermal stress (Study 1)” value does the source give for B3 here?
**A.** 25.2%

**Q.** Which “percent antigen binding on-rate remaining in the scFv-conjugate following thermal stress (Study 1)” value does the source give for B4 here?
**A.** 18.2%

target: T1, His6-tagged recombinant human EphA2 …; assay: BLI (Octet Red 96); His6-EphA2 on anti-His sensors; slope of association curve of scFv-PEG-DSPE conjugate; TS1C printed as 100
Text: as §1, §2

**Q.** With B1 as the binder, how does the “percent scFv-conjugate (not liposome-bound) EphA2 binding on-rate” value read?
**A.** 113%

**Q.** How did the “percent scFv-conjugate (not liposome-bound) EphA2 binding on-rate” value turn out when B2 was run?
**A.** 112%

**Q.** Which “percent scFv-conjugate (not liposome-bound) EphA2 binding on-rate” value does the source give for B3 here?
**A.** 114%

**Q.** For B4, which “percent scFv-conjugate (not liposome-bound) EphA2 binding on-rate” value is on record?
**A.** 105%

**Q.** With B5 as the binder, how does the “percent scFv-conjugate (not liposome-bound) EphA2 binding on-rate” value read?
**A.** 128%

target: T2, human EphA2 on OVCAR-3 and U-251 cells (human, UniProt P29317 24-976); assay: CLIA: scFv-decorated fluorescent NTA(Ni) liposomes on EphA2-expressing cells, FACS
T2 construct: whole, on cells; also called EphA2 receptors
Method: To test the anti-EphA2 activity of these variant scFvs, the binding and internalization of liposomes externally decorated with these Abs was assayed on cell lines expressing EphA2. A rapid high-throughput Chelated Ligand-induced Internalization Assay (CLIA) (Nielsen et al., BMC immunology, 2006, 7:24) was used to screen anti-EphA2-scFv-targeted liposomes for binding and internalization assessment. Two cell lines that express high levels of EphA2 receptors, OVCAR-3 and U-251, were tested, as well as a murine EphA2-expressing mouse cell line, CT-26 (to test whether cross-reactivity to murine EphA2 was retained by the engineered scFvs). Via nickel-binding by each scFv's c-terminal His6 tag, the scFvs were bound to fluorescently labeled liposomes comprising an NTA(Ni) conjugated lipid (Dil5-NTA liposomes).
Dil5-NTA liposomes were prepared as follows. The NTA conjugated lipid, DOD-Tri-NTA, was synthesized as described in Huang et al., Bioconjugate chemistry, 2006, vol. 17, p. 1592-1600. Hydrogenated soy phosphatidylcholine (HSPC), cholesterol, methoxy-PEG(2000)-distearoylphosphatidylethanolamine (PEG-DSPE), DOD-tri-NTA, and a fluorescent lipid dye, Dil5, (ThermoFisher® Invitrogen® Molecular Probes™, cat. # D12370) were combined in a chloroform solution at the molar ratio of 100:66.7:5:0.5:0.3 respectively and the solution evaporated under vacuum to dryness forming a lipid film. The film was hydrated in HEPES-buffered physiological saline (“HBS-6.5”—5 mM HEPES, 144 mM NaCl pH 6.5) at 68° C., the resulting lipid suspension was subjected to several cycles of freezing (dry ice-acetone) and thawing (68C), and extruded through two stacked polycarbonate membranes (Whatman Nuclepore, USA) with the pore size of 200 nm (6 times) and 100 nm (10 times) using Lipex™ thermobarrel extruder (Northern Lipids, Canada). This protocol typically produces unilamellar vesicles with the z-average size of 100-110 nm and polydispersity index less than 0.1. The extruded liposomes were chilled to room temperature, purified by gel-chromatography on a Sephadex® G-75 (GE Healthcare) column eluted with HBS-6.5, and then sterilized by passage through a 0.2-μm filter. The concentration of liposomal phospholipid was then determined after acid digestion using spectrophotometric phosphomolybdate method.

T2 sequence (P29317 24-976): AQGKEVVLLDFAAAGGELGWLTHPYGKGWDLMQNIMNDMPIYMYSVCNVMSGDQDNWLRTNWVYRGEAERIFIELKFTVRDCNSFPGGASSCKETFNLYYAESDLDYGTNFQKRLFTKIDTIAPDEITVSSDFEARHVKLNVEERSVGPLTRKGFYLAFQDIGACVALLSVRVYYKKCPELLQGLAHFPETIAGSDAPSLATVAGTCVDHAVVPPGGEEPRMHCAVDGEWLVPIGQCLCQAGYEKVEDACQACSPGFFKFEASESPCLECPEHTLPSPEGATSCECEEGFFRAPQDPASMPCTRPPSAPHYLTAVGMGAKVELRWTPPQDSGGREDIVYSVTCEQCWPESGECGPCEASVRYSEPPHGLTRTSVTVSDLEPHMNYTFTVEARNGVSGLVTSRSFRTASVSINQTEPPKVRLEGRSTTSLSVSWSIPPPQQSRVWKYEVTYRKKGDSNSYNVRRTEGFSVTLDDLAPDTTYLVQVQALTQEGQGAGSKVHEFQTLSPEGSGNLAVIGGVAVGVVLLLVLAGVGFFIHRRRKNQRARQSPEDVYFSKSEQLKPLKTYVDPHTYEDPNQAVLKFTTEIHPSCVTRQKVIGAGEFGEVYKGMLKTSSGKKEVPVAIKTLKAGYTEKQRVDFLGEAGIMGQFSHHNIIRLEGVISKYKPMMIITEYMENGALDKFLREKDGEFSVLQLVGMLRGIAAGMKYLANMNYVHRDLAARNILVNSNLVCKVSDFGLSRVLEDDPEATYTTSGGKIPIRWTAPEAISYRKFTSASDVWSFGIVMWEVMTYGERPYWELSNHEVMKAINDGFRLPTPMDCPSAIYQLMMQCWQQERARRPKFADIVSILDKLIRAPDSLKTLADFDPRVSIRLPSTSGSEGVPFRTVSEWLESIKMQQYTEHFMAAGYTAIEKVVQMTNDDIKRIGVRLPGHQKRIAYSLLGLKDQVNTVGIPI

**Q.** Does B6 bind?
**A.** binds

**Q.** Does B7 bind?
**A.** binds

**Q.** Does B8 bind?
**A.** binds

**Q.** Does B9 bind?
**A.** binds

**Q.** Does B10 bind?
**A.** binds

**Q.** Does B11 bind?
**A.** binds

**Q.** Does B12 bind?
**A.** binds

**Q.** Does B13 bind?
**A.** binds

**Q.** Does B14 bind?
**A.** binds

**Q.** Does B15 bind?
**A.** binds

**Q.** Does B16 bind?
**A.** binds

**Q.** Does B17 bind?
**A.** binds

**Q.** Does B18 bind?
**A.** binds

**Q.** Does B19 bind?
**A.** binds

**Q.** Does B20 bind?
**A.** binds

**Q.** Does B21 bind?
**A.** binds

**Q.** Does B22 bind?
**A.** binds

**Q.** Does B23 bind?
**A.** binds

**Q.** Does B24 bind?
**A.** binds

**Q.** Does B25 bind?
**A.** binds

**Q.** Does B26 bind?
**A.** binds
